# US8828401B2, “Cytotoxic peptides and antibody drug conjugates thereof” (Pfizer Inc., priority 2011, dated 2014)
# What was measured:
# 37622A1 NSCLC xenografts = test: 37622A1 NSCLC patient-derived xenografts with anti-Notch ADCs; type: in vivo, nude (Nu/Nu) female mice; details: 5 mg/kg Q4dx4
# Method: (§1) Humanized anti-Notch antibodies, hu28 and hu75, and rat-human chimeric anti-Notch antibodies, ch28 and ch75, were conjugated to various linker-payload combinations and tested in 37622A1 non-small cell lung cancer (NSCLC), HCC2429 lung cancer, MDA-MB-468 breast cancer and N87 gastric cancer xenograft models. For each model described below the first dose was given on Day 0. The tumors were measured at least once a week and their volume was calculated with the formula: tumor volume (mm^3)=0.5×(tumor width^2)(tumor length). The mean tumor volumes (±S.E.M.) for each treatment group were calculated having a maximum of 10 animals and a minimum of 6 animals to be included.
# The effects of anti-Notch ADCs were examined in immunodeficient mice on the in vivo growth of human tumor xenografts that were established from fragments of freshly resected 37622A1 NSCLC tumors obtained in accordance with appropriate consent procedures (Asterand). The 37622A1 NSCLC patient-derived xenografts were subcutaneously passaged in vivo as fragments from animal to animal in nude (Nu/Nu) female mice. When the tumors reached a volume of 150 to 300 mm^3, they were staged to ensure uniformity of the tumor size among various treatment groups. The 37622A1 NSCLC model was dosed intraveneously four times every four days (Q4dx4) with PBS vehicle, humanized anti-Notch ADCs, control huNeg-8.8 ADCs and cisplatin at the doses provided in Table 11.
# N87 gastric xenografts = N87 gastric xenografts with anti-Notch ADCs; type: in vivo, nude (Nu/Nu) female mice; details: Dose 5 mg/kg Q4dx4 iv
# Method: as §1
# Similar in vivo experiments were performed with the N87 gastric cancer cell line as described above. […] When the tumors reached a volume of 250 to 450 mm^3, the tumors were staged to ensure uniformity of the tumor mass among various treatment groups. The N87 gastric model was dosed intraveneously Q4dx4 with PBS vehicle, humanized anti-Notch ADCs, control huNeg-8.8 ADCs and cisplatin at the doses provided in Tables 16 and 17.
# HCC2429 (lung cancer) = test: In vitro cytotoxicity assay with anti-Notch ADCs (MTS); type: cell-based; details: average of 2-4 repeats where ± S.E.M. is given
# Method: (§2) The effects of anti-Notch ADCs were assessed on 1) cell lines endogenously expressing Notch protein: HCC2429 (lung cancer), OVCAR3 (ovarian cancer) and MDA-MB-468 (breast cancer), 2) cell lines engineered to over-express Notch protein: MDA-MB-468/hNotch and U2OS/hNotch, and 3) a negative control cell line (SW900) using an MTS cellular viability indicator (Promega, Madison, Wis.). These cell lines were cultured with increasing concentrations of anti-Notch ADCs comprising humanized anti-Notch antibodies, hu28 and hu75, and rat-human chimeric anti-Notch antibodies, ch28 and ch75, conjugated to various linker-payload combinations of the present invention. As a specificity control for the anti-Notch-ADCs, non-targeted control-ADCs (huNeg8.8-ADCs or ch2H6-ADCs) were also tested on the same cell lines. After four days, viability of each culture was assessed. IC50 values were calculated by logistic non-linear regression and presented as ng Ab/mL. The drug antibody ratio (DAR) is also provided.
# [1] = test system: MDA-MB-468 (breast cancer); test: as above; type: cell-based; details: average of 2-4 repeats where ± S.E.M. is given
# Method: as §2
# OVCAR3 (ovarian cancer) = test: as above; type: cell-based; details: average of 2-4 repeats where ± S.E.M. is given
# Method: as §2
# U2OS/hNotch = test: as above; type: cell-based; details: average of 2-4 repeats where ± S.E.M. is given
# Method: as §2
# MDA-MB-468/hNotch = test: as above; type: cell-based; details: average of 2-4 repeats where ± S.E.M. is given
# Method: as §2
molecule,measurement,setting,value
"N.N.[Cl][Pt][Cl] [Cisplatin, reference compound]",tumor volume (mm^3 ± SEM),37622A1 NSCLC xenografts; DAY 4,226 ± 15 mm^3
same,tumor volume (mm^3 ± SEM),37622A1 NSCLC xenografts; DAY 7,280 ± 29 mm^3
same,tumor volume (mm^3 ± SEM),37622A1 NSCLC xenografts; DAY 11,301 ± 34 mm^3
same,tumor volume (mm^3 ± SEM),37622A1 NSCLC xenografts; DAY 14,345 ± 47 mm^3
same,tumor volume (mm^3 ± SEM),37622A1 NSCLC xenografts; DAY 18,309 ± 37 mm^3
same,tumor volume (mm^3 ± SEM),37622A1 NSCLC xenografts; DAY 21,373 ± 50 mm^3
same,tumor volume (mm^3 ± SEM),37622A1 NSCLC xenografts; DAY 25,401 ± 58 mm^3
same,tumor volume (mm^3 ± SEM),37622A1 NSCLC xenografts; DAY 28,446 ± 64 mm^3
same,tumor volume (mm^3 ± SEM),37622A1 NSCLC xenografts; DAY 32,482 ± 62 mm^3
same,tumor volume (mm^3 ± SEM),37622A1 NSCLC xenografts; DAY 35,587 ± 80 mm^3
same,tumor volume (mm^3 ± SEM),37622A1 NSCLC xenografts; DAY 39,591 ± 83 mm^3
same,tumor volume (mm^3 ± SEM),37622A1 NSCLC xenografts; DAY 42,612 ± 92 mm^3
same,tumor volume (mm^3 ± SEM),37622A1 NSCLC xenografts; DAY 46,723 ± 119 mm^3
same,tumor volume (mm^3 ± SEM),37622A1 NSCLC xenografts; DAY 49,853 ± 139 mm^3
same,tumor volume (mm^3 ± SEM),37622A1 NSCLC xenografts; DAY 53,970 ± 193 mm^3
same,tumor volume (mm^3 ± SEM),37622A1 NSCLC xenografts; DAY 56,1215 ± 231 mm^3
same,tumor volume (mm^3 ± SEM),37622A1 NSCLC xenografts; DAY 60,1428 ± 273 mm^3
same,tumor volume (mm^3 ± SEM),37622A1 NSCLC xenografts; DAY −1,185 ± 11 mm^3
same,tumor volume (mm^3 ± SEM),N87 gastric xenografts; DAY 0,328 ± 20 mm^3
same,tumor volume (mm^3 ± SEM),N87 gastric xenografts; DAY 4,414 ± 27 mm^3
same,tumor volume (mm^3 ± SEM),N87 gastric xenografts; DAY 7,520 ± 26 mm^3
same,tumor volume (mm^3 ± SEM),N87 gastric xenografts; DAY 11,501 ± 29 mm^3
same,tumor volume (mm^3 ± SEM),N87 gastric xenografts; DAY 14,637 ± 31 mm^3
ch28-mc0131 (conjugate) VH: EVQLVESGGGLVQPGRSLTLSCVASGFTFRDYGMTWIRQAPGKGLTWVAYISSGSNYIYYAEAVKGRFTISRDNAKNTLYLQMTSLRSEDTALYFCTRRGPFVLDAWGQGASVTVSS VL: DIQMTQSPSFLSASVGDRVTINCKASQSINRYLHWFQQKLGEAPKLLIYNANGLQTGIPSRFSGSGSGTDFTLTISSLQSEDVATYFCLQHNTWPDTFGAGTKLELK,IC50 (ng Ab/mL) ± S.E.M.,HCC2429 (lung cancer),251 ± 77.5 ng Ab/mL
same,IC50 (ng Ab/mL) ± S.E.M.,[1],35 ± 18.5 ng Ab/mL
same,IC50 (ng Ab/mL) ± S.E.M.,OVCAR3 (ovarian cancer),6 ± 1.0 ng Ab/mL
same,IC50 (ng Ab/mL) ± S.E.M.,U2OS/hNotch,3 ± 0.5 ng Ab/mL
ch28-vc0101: rat-human chimeric anti-Notch antibody ch28 conjugated to mcValCitPABC-#54 (conjugate) VH: EVQLVESGGGLVQPGRSLTLSCVASGFTFRDYGMTWIRQAPGKGLTWVAYISSGSNYIYYAEAVKGRFTISRDNAKNTLYLQMTSLRSEDTALYFCTRRGPFVLDAWGQGASVTVSS VL: DIQMTQSPSFLSASVGDRVTINCKASQSINRYLHWFQQKLGEAPKLLIYNANGLQTGIPSRFSGSGSGTDFTLTISSLQSEDVATYFCLQHNTWPDTFGAGTKLELK,IC50 (ng Ab/mL) ± S.E.M.,HCC2429 (lung cancer),3230 ± 1116.5 ng Ab/mL
same,IC50 (ng Ab/mL) ± S.E.M.,[1],5443 ± 2630.9 ng Ab/mL
same,IC50 (ng Ab/mL) ± S.E.M.,MDA-MB-468/hNotch,4 ± 0.5 ng Ab/mL
same,IC50 (ng Ab/mL) ± S.E.M.,OVCAR3 (ovarian cancer),635 ng Ab/mL
same,IC50 (ng Ab/mL) ± S.E.M.,U2OS/hNotch,95 ± 18.2 ng Ab/mL
ch28-me0131 (conjugate) VH: EVQLVESGGGLVQPGRSLTLSCVASGFTFRDYGMTWIRQAPGKGLTWVAYISSGSNYIYYAEAVKGRFTISRDNAKNTLYLQMTSLRSEDTALYFCTRRGPFVLDAWGQGASVTVSS VL: DIQMTQSPSFLSASVGDRVTINCKASQSINRYLHWFQQKLGEAPKLLIYNANGLQTGIPSRFSGSGSGTDFTLTISSLQSEDVATYFCLQHNTWPDTFGAGTKLELK,IC50 (ng Ab/mL) ± S.E.M.,HCC2429 (lung cancer),30 ng Ab/mL
same,IC50 (ng Ab/mL) ± S.E.M.,[1],24 ± 14.0 ng Ab/mL
same,IC50 (ng Ab/mL) ± S.E.M.,OVCAR3 (ovarian cancer),8 ± 2.0 ng Ab/mL
same,IC50 (ng Ab/mL) ± S.E.M.,U2OS/hNotch,3 ± 1.15 ng Ab/mL
ch28-vc6780 (conjugate) VH: EVQLVESGGGLVQPGRSLTLSCVASGFTFRDYGMTWIRQAPGKGLTWVAYISSGSNYIYYAEAVKGRFTISRDNAKNTLYLQMTSLRSEDTALYFCTRRGPFVLDAWGQGASVTVSS VL: DIQMTQSPSFLSASVGDRVTINCKASQSINRYLHWFQQKLGEAPKLLIYNANGLQTGIPSRFSGSGSGTDFTLTISSLQSEDVATYFCLQHNTWPDTFGAGTKLELK,IC50 (ng Ab/mL) ± S.E.M.,HCC2429 (lung cancer),324 ± 78.9 ng Ab/mL
same,IC50 (ng Ab/mL) ± S.E.M.,[1],4407 ± 2128.2 ng Ab/mL
same,IC50 (ng Ab/mL) ± S.E.M.,MDA-MB-468/hNotch,3 ± 0.5 ng Ab/mL
same,IC50 (ng Ab/mL) ± S.E.M.,OVCAR3 (ovarian cancer),90 ± 48.5 ng Ab/mL
ch75-mc0131 (conjugate) VH: QVKLLQSGAALVKPGASVKMSCKASGYAFTDYWVTWVKQSHGKSLEWIGEISPNSGGTNFNEKFKGKATLTVDKSTSTAYMELSRLTSEDSAIYYCTRGEIRYNWFAYWGQGTLVTVSS VL: DIQMTQSPSSLSASVGDRVTITCKASQNVGNNIAWYQQKPGKAPKLLIYYASNRYTGVPSRFSGSGYGTDFTLTISSLQPEDFATYYCQRLYNSPFTFGGGTKVEIK,IC50 (ng Ab/mL) ± S.E.M.,HCC2429 (lung cancer),671 ± 406.5 ng Ab/mL
same,IC50 (ng Ab/mL) ± S.E.M.,[1],8202 ± 2773.0 ng Ab/mL
same,IC50 (ng Ab/mL) ± S.E.M.,OVCAR3 (ovarian cancer),289 ng Ab/mL
same,IC50 (ng Ab/mL) ± S.E.M.,U2OS/hNotch,19 ng Ab/mL
ch75-vc6780 (conjugate) VH: QVKLLQSGAALVKPGASVKMSCKASGYAFTDYWVTWVKQSHGKSLEWIGEISPNSGGTNFNEKFKGKATLTVDKSTSTAYMELSRLTSEDSAIYYCTRGEIRYNWFAYWGQGTLVTVSS VL: DIQMTQSPSSLSASVGDRVTITCKASQNVGNNIAWYQQKPGKAPKLLIYYASNRYTGVPSRFSGSGYGTDFTLTISSLQPEDFATYYCQRLYNSPFTFGGGTKVEIK,IC50 (ng Ab/mL) ± S.E.M.,HCC2429 (lung cancer),1004 ± 177.0 ng Ab/mL
same,IC50 (ng Ab/mL) ± S.E.M.,[1],6873 ± 4230.0 ng Ab/mL
same,IC50 (ng Ab/mL) ± S.E.M.,MDA-MB-468/hNotch,21 ± 3.5 ng Ab/mL
same,IC50 (ng Ab/mL) ± S.E.M.,OVCAR3 (ovarian cancer),922 ng Ab/mL
ch75-vc0101: rat-human chimeric anti-Notch antibody ch75 conjugated to mcValCitPABC-#54 (conjugate) VH: QVKLLQSGAALVKPGASVKMSCKASGYAFTDYWVTWVKQSHGKSLEWIGEISPNSGGTNFNEKFKGKATLTVDKSTSTAYMELSRLTSEDSAIYYCTRGEIRYNWFAYWGQGTLVTVSS VL: DIQMTQSPSSLSASVGDRVTITCKASQNVGNNIAWYQQKPGKAPKLLIYYASNRYTGVPSRFSGSGYGTDFTLTISSLQPEDFATYYCQRLYNSPFTFGGGTKVEIK,IC50 (ng Ab/mL) ± S.E.M.,HCC2429 (lung cancer),2112 ± 826.0 ng Ab/mL
same,IC50 (ng Ab/mL) ± S.E.M.,[1],4064 ± 1793.9 ng Ab/mL
same,IC50 (ng Ab/mL) ± S.E.M.,MDA-MB-468/hNotch,24 ± 4.0 ng Ab/mL
